Results on 14 molecules are retold here after patent US20220048967A1 (published 2022).

Holding throughout (assay): cell-based or functional assay
Test [1] deals with T1, human gastric inhibitory peptide receptor (GIPR) (human, UniProt P48546 22-466).
T1 sequence (looked up): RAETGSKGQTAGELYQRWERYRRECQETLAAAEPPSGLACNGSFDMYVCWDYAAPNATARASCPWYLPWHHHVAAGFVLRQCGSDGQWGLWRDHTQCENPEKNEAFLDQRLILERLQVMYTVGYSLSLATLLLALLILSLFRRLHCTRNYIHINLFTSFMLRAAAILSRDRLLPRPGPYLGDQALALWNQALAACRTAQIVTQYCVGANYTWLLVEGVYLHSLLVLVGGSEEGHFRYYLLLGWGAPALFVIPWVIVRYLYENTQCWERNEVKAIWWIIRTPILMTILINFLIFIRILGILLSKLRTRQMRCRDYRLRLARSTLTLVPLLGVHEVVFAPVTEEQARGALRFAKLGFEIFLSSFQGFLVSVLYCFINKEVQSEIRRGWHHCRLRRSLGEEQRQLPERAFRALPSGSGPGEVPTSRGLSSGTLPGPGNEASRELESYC

The target in test [2] is human GLP-1 receptor (GLP-1R) (human, UniProt P43220 24-463).
Another test deals with human GLP-1 receptor (human, UniProt P43220 24-463).
For test [3], the target named is Pro-Link-tagged Human GLP-1R (human, UniProt P43220 24-463).
Wherever hGIPR cAMP EC50 ratio is given: reference of the scale not given here.
Wherever hGLP1R B-Arrestin2 % Top is given: reference of the scale not given here.
Wherever hGLP1R GTPgS % Top is given: reference of the scale not given here.
Wherever hGLP1R cAMP EC50 ratio is given: reference of the scale not given here.

B1: Example 367 (peptide)
peptide: YXEGTFTSDYSIXLDKKAQXEFIEXLIAGGPSSGAPPPS
modifications: Aib2; αMeL13; K17 conjugated to (2-[2-(2-Amino-ethoxy)-ethoxy]-acetyl)2-(γ-Glu)-CO-(CH2)18-CO2H; Aib20; αMeY25; C-terminal amide
Regarding B1, in test [1], the “hGIPR cAMP EC50 ratio” value is 5.85 ratio and the “hGIPR cAMP Rel EC50” value is 0.0179 nM. For the same molecule, in test [2], the “hGLP1R cAMP EC50 ratio” value stood at 0.386 ratio and the “hGLP1R cAMP Rel EC50” value amounted to 0.0641 nM.

B2: Example 367 (peptide)
peptide: YXEGTFTSDYSIXLDKKAQXEFIEXLIAGGPSSGAPPPS
modifications: Aib2, αMeL13, K17 conjugated to (2-[2-(2-Amino-ethoxy)-ethoxy]-acetyl)2-(γ-Glu)-CO-(CH2)18-CO2H, Aib20, αMeY25, C-terminal amide (NH2)
In the case of B2, in the test with human GLP-1 receptor, the “hGLP1R GTPgS % Top” value is 89.7% and the “hGLP1R GTPgS Rel EC50” value was 0.289 nM. For the same molecule, in test [3], the “hGLP1R B-Arrestin2 % Top” value was found to be 70.6% and the “hGLP1R B-Arrestin2 Rel EC50” value is 6.66 nM.

B3: Example 374 (peptide)
peptide: XXEGTFTSDYSIXLDKKAQXEFIEXLIAGGPSSGAPPPS
modifications: D-Tyr1, Aib2, αMeL13, K17 conjugated to (2-[2-(2-Amino-ethoxy)-ethoxy]-acetyl)2-(γ-Glu)-CO-(CH2)16-CO2H, Aib20, αMeY25, C-terminal amide (NH2)
Take B3: in the test with human GLP-1 receptor, the “hGLP1R GTPgS % Top” value was 67.1% and the “hGLP1R GTPgS Rel EC50” value came to 0.345 nM. Moreover, in test [3], the “hGLP1R B-Arrestin2 % Top” value came to 34.7% and the “hGLP1R B-Arrestin2 Rel EC50” value was determined as 21.8 nM.

B4: Example 372 (peptide)
peptide: XXEGTFTSDYSIXLDKKAQXEFIEXLIAGGPSSGAPPPS
modifications: D-Tyr1, Aib2, αMeL13, K17 conjugated to (2-[2-(2-Amino-ethoxy)-ethoxy]-acetyl)-(γ-Glu)-CO-(CH2)18-CO2H, Aib20, αMeY25, C-terminal amide (NH2)
On to B4, for which, in the test with human GLP-1 receptor, the “hGLP1R GTPgS % Top” value amounted to 69.1% and the “hGLP1R GTPgS Rel EC50” value was 0.379 nM. Also, in test [3], the “hGLP1R B-Arrestin2 % Top” value worked out at 32.9% and the “hGLP1R B-Arrestin2 Rel EC50” value was 9.81 nM.

B5: Example 360 (peptide)
peptide: XXEGTFTSDYSIXLDXKAQXAFVEYLIEGGPSSGAPPPS
modifications: D-Tyr1; Aib2; αMeL13; Orn16; K17 conjugated to (2-[2-(2-Amino-ethoxy)-ethoxy]-acetyl)2-(γ-Glu)-CO-(CH2)18-CO2H; Aib20; C-terminal amide
Turning to B5, in test [1], the “hGIPR cAMP EC50 ratio” value worked out at 0.53 ratio and the “hGIPR cAMP Rel EC50” value stood at 0.197 nM. Besides, in test [2], the “hGLP1R cAMP EC50 ratio” value amounted to 0.171 ratio and the “hGLP1R cAMP Rel EC50” value stood at 0.145 nM.

B6: Example 381 (peptide)
peptide: XXEGTFTSDYSIXLDEKAQXAFIEXLIAGGPSSGAPPPS
modifications: D-Tyr1, Aib2, αMeL13, K17 conjugated to (2-[2-(2-Amino-ethoxy)-ethoxy]-acetyl)2-(γ-Glu)-CO-(CH2)18-CO2H, Aib20, αMeY25, C-terminal amide (NH2)
For the molecule B6, in the test with human GLP-1 receptor, the “hGLP1R GTPgS % Top” value was 73.6% and the “hGLP1R GTPgS Rel EC50” value was 0.273 nM. Also, in test [3], the “hGLP1R B-Arrestin2 % Top” value was 25.8% and the “hGLP1R B-Arrestin2 Rel EC50” value was 15.5 nM.

B7: Example 364 (peptide)
peptide: XXEGTFTSDYSIXLDXKAQXAFVXYLIAGGPSSGAPPPS
modifications: D-Tyr1; Aib2; αMeL13; Orn16; K17 conjugated to (2-[2-(2-Amino-ethoxy)-ethoxy]-acetyl)2-(γ-Glu)-CO-(CH2)16-CO2H; Aib20; D-Glu24; C-terminal amide
Take B7: in test [1], the “hGIPR cAMP EC50 ratio” value was 0.347 ratio and the “hGIPR cAMP Rel EC50” value was determined as 0.351 nM. Besides, in test [2], the “hGLP1R cAMP EC50 ratio” value came out at 0.0303 ratio and the “hGLP1R cAMP Rel EC50” value stood at 1 nM.

B8: Example 368 (peptide)
peptide: XXEGTFTSDYSIXLDXKAQXEFIEYLIAGGPSSGAPPPS
modifications: D-Tyr1, Aib2, αMeL13, Orn16, K17 conjugated to (2-[2-(2-Amino-ethoxy)-ethoxy]-acetyl)2-(γ-Glu)-CO-(CH2)16-CO2H, Aib20, C-terminal amide (NH2)
In the case of B8, in the test with human GLP-1 receptor, the “hGLP1R GTPgS % Top” value came out at 68.9% and the “hGLP1R GTPgS Rel EC50” value is 0.495 nM. In test [3], the “hGLP1R B-Arrestin2 % Top” value was found to be 21.3% and the “hGLP1R B-Arrestin2 Rel EC50” value is 47.9 nM.

B9: Example 378 (peptide)
peptide: XXEGTFTSDYSIXLDKKAQXEFIEYLIAGGPSSGAPPPS
modifications: D-Tyr1, Aib2, αMeL13, K17 conjugated to (2-[2-(2-Amino-ethoxy)-ethoxy]-acetyl)-(γ-Glu)-CO-(CH2)18-CO2H, Aib20, C-terminal amide (NH2)
B9: in the test with human GLP-1 receptor, the “hGLP1R GTPgS % Top” value turned out to be 68.6% and the “hGLP1R GTPgS Rel EC50” value is 0.359 nM. For the same molecule, in test [3], the “hGLP1R B-Arrestin2 Rel EC50” value is above 10200 nM.

B10: Example 371 (peptide)
peptide: XXEGTFTSDYSIXLDXKAQXEFIEYLIAGGPSSGAPPPS
modifications: D-Tyr1, Aib2, αMeL13, Orn16, K17 conjugated to (2-[2-(2-Amino-ethoxy)-ethoxy]-acetyl)-(γ-Glu)-CO-(CH2)18-CO2H, Aib20, C-terminal amide (NH2)
With B10, in the test with human GLP-1 receptor, the “hGLP1R GTPgS % Top” value was found to be 62.5% and the “hGLP1R GTPgS Rel EC50” value turned out to be 0.27 nM. In test [3], the “hGLP1R B-Arrestin2 % Top” value worked out at 21.7% and the “hGLP1R B-Arrestin2 Rel EC50” value came to 14.2 nM.

B11: Example 373 (peptide)
peptide: XXEGTFTSDYSIXLDKKAQXAFIEXLIAGGPSSGAPPPS
modifications: D-Tyr1, Aib2, αMeL13, K17 conjugated to (2-[2-(2-Amino-ethoxy)-ethoxy]-acetyl)-(γ-Glu)-CO-(CH2)18-CO2H, Aib20, αMeY25, C-terminal amide (NH2)
With B11, in the test with human GLP-1 receptor, the “hGLP1R GTPgS % Top” value turned out to be 65.6% and the “hGLP1R GTPgS Rel EC50” value is 0.336 nM. Also, in test [3], the “hGLP1R B-Arrestin2 % Top” value amounted to 22.9% and the “hGLP1R B-Arrestin2 Rel EC50” value is 9.54 nM.

B12: Example 369 (peptide)
peptide: XXEGTFTSDYSIXLDXKAQXDFIEYLIAGGPSSGAPPPS
modifications: D-Tyr1; Aib2; αMeL13; Orn16; K17 conjugated to (2-[2-(2-Amino-ethoxy)-ethoxy]-acetyl)2-(γ-Glu)-CO-(CH2)18-CO2H; Aib20; C-terminal amide
For the molecule B12, in test [1], the “hGIPR cAMP EC50 ratio” value came to 0.499 ratio and the “hGIPR cAMP Rel EC50” value worked out at 0.166 nM. Besides, in test [2], the “hGLP1R cAMP EC50 ratio” value is 0.319 ratio and the “hGLP1R cAMP Rel EC50” value came out at 0.101 nM.

B13: Example 363 (peptide)
peptide: XXEGTFTSDYSIXLDXKAQXAFIXYLIAGGPSSGAPPPS
modifications: D-Tyr1; Aib2; αMeL13; Orn16; K17 conjugated to (2-[2-(2-Amino-ethoxy)-ethoxy]-acetyl)2-(γ-Glu)-CO-(CH2)16-CO2H; Aib20; D-Glu24; C-terminal amide
As for B13, in test [1], the “hGIPR cAMP EC50 ratio” value is 0.835 ratio and the “hGIPR cAMP Rel EC50” value is 0.145 nM. Further, in test [2], the “hGLP1R cAMP EC50 ratio” value was determined as 0.146 ratio and the “hGLP1R cAMP Rel EC50” value was 0.208 nM.

B14: Example 365 (peptide)
peptide: XXEGTFTSDYSIXLDKKAQXAFIEXLIAGGPSSGAPPPS
modifications: D-Tyr1, Aib2, αMeL13, K17 conjugated to (2-[2-(2-Amino-ethoxy)-ethoxy]-acetyl)2-(γ-Glu)-CO-(CH2)18-CO2H, Aib20, αMeY25, C-terminal amide (NH2)
As for B14, in the test with human GLP-1 receptor, the “hGLP1R GTPgS % Top” value was determined as 66.9% and the “hGLP1R GTPgS Rel EC50” value stood at 0.464 nM. In addition, in test [3], the “hGLP1R B-Arrestin2 % Top” value worked out at 20.8% and the “hGLP1R B-Arrestin2 Rel EC50” value is 7.03 nM.
